These results are taken from ChEMBL document CHEMBL1137666, “Biochemical Characterization of SFC-1, a class A carbapenem-hydrolyzing beta-lactamase” (Antimicrob Agents Chemother, 2007).

Series [1] addresses Carbapenem-hydrolyzing beta-lactamase KPC (Klebsiella pneumoniae, UniProt Q9F663). In words: Inhibition of Klebsiella pneumoniae KPC-1 beta lactamase expressed in Escherichia coli DH5alpha by SDS-PAGE.
Substrate in series [2]: CO[C@@]1(NC(=O)Cc2cccs2)C(=O)N2C(C(=O)O)=C(COC(N)=O)CS[C@@H]21
The series is described as follows: (§1) Activity of Klebsiella pneumoniae KPC-1 beta lactamase expressed in Escherichia coli DH5alpha by SDS-PAGE.

Substrate in series [3]: CC(=O)OCC1=C(C(=O)O)N2C(=O)[C@@H](NC(=O)Cc3cccs3)[C@H]2SC1
Described as §1.

Substrate in series [4]: C[C@@H](O)[C@H]1C(=O)N2C(C(=O)O)=C(S[C@@H]3CN[C@H](C(=O)N(C)C)C3)[C@H](C)[C@H]12
Described as §1.

Substrate in series [5]: CC(C)(O/N=C(\C(=O)N[C@@H]1C(=O)N2C(C(=O)[O-])=C(C[n+]3ccccc3)CS[C@H]12)c1csc(N)n1)C(=O)O
Described as §1.

Substrate in series [6]: C[C@@H](O)[C@H]1C(=O)N2C(C(=O)O)=C(SCCNC=N)C[C@H]12
The series is described as §1.

Substrate in series [7]: CCN1CCN(C(=O)N[C@@H](C(=O)N[C@@H]2C(=O)N3[C@@H]2SC(C)(C)[C@@H]3C(=O)O)c2ccccc2)C(=O)C1=O
The description is as §1.

Substrate in series [8]: CC1(C)S[C@@H]2[C@H](NC(=O)[C@H](N)c3ccccc3)C(=O)N2[C@H]1C(=O)O
Described as §1.

Substrate in series [9]: C[C@H]1[C@H](NC(=O)/C(=N\OC(C)(C)C(=O)O)c2csc(N)n2)C(=O)N1S(=O)(=O)O
Described as §1.

Substrate in series [10]: CO/N=C(\C(=O)N[C@@H]1C(=O)N2C(C(=O)O)=C(COC(C)=O)CS[C@H]12)c1csc(N)n1
Described as §1.

Substrate in series [11]: CO[C@@]1(NC(=O)Cc2cccs2)C(=O)N2C(C(=O)O)=C(COC(N)=O)CS[C@@H]21
In words: (§2) Ratio of Kcat to Km for Klebsiella pneumoniae KPC-1 beta lactamase expressed in Escherichia coli DH5alpha by SDS-PAGE.

Substrate in series [12]: CC(=O)OCC1=C(C(=O)O)N2C(=O)[C@@H](NC(=O)Cc3cccs3)[C@H]2SC1
The series is described as §2.

Substrate in series [13]: C[C@@H](O)[C@H]1C(=O)N2C(C(=O)O)=C(S[C@@H]3CN[C@H](C(=O)N(C)C)C3)[C@H](C)[C@H]12
The series is described as §2.

Substrate in series [14]: CC(C)(O/N=C(\C(=O)N[C@@H]1C(=O)N2C(C(=O)[O-])=C(C[n+]3ccccc3)CS[C@H]12)c1csc(N)n1)C(=O)O
The description is as §2.

Substrate in series [15]: C[C@@H](O)[C@H]1C(=O)N2C(C(=O)O)=C(SCCNC=N)C[C@H]12
Described as §2.

Substrate in series [16]: CCN1CCN(C(=O)N[C@@H](C(=O)N[C@@H]2C(=O)N3[C@@H]2SC(C)(C)[C@@H]3C(=O)O)c2ccccc2)C(=O)C1=O
The description is as §2.

Substrate in series [17]: CC1(C)S[C@@H]2[C@H](NC(=O)[C@H](N)c3ccccc3)C(=O)N2[C@H]1C(=O)O
Described as §2.

Substrate in series [18]: C[C@H]1[C@H](NC(=O)/C(=N\OC(C)(C)C(=O)O)c2csc(N)n2)C(=O)N1S(=O)(=O)O
The series is described as §2.

Substrate in series [19]: CO/N=C(\C(=O)N[C@@H]1C(=O)N2C(C(=O)O)=C(COC(C)=O)CS[C@H]12)c1csc(N)n1
The series is described as §2.

`C[C@]1(Cn2ccnn2)[C@H](C(=O)O)N2C(=O)C[C@H]2S1(=O)=O` [TAZOBACTAM]: the IC50 (commonly the concentration needed to halve the response being measured) in series [1] worked out at 374 nM.

B1: Carbapenem-hydrolyzing beta-lactamase KPC (Klebsiella pneumoniae), Q9F663 (protein)
chain: MSLYRRLVLLSCLSWPLAGFSATALTNLVAEPFAKLEQDFGGSIGVYAMDTGSGATVSYRAEERFPLCSSFKGFLAAAVLARSQQQAGLLDTPIRYGKNALVPWSPISEKYLTTGMTVAELSAAAVQYSDNAAANLLLKELGGPAGLTAFMRSIGDTTFRLDRWELELNSAIPGDARDTSSPRAVTESLQKLTLGSALAAPQRQQFVDWLKGNTTGNHRIRAAVPADWAVGDKTGTCGVYGTANDYAVVWPTGRAPIVLAVYTRAPNKDDKHSEAVIAAAARLALEGLGVNGQ
As to B1, the Km (in general, the substrate concentration at which the rate is half of its maximum) in [2] is 120 µM; in [3], 53 µM; in [4], 12 µM; in series [5], 94 µM; in series [6] it was 81 µM; in series [7], 18 µM. Besides, the Km in series [8] stood at 130 µM; in series [9], 310 µM; in series [10], 160 µM. Besides, the kcat (in general, the maximal rate divided by the concentration of active sites) was found to be 0.26 s⁻¹ in series [2]; 75 s⁻¹ in series [3]; 3 s⁻¹ in series [4]; 0.1 s⁻¹ in series [5]; 12 s⁻¹ in series [6]; 24 s⁻¹ in [7]. Besides, the kcat was determined as 110 s⁻¹ in series [8], 20 s⁻¹ in series [9] and 14 s⁻¹ in [10]. Besides, the catalytic efficiency (kcat/Km) (commonly the turnover number divided by the Michaelis constant) in series [11] came out at 2000 M⁻¹ s⁻¹; in [12], 1.4e+06 M⁻¹ s⁻¹; in series [13], 250000 M⁻¹ s⁻¹; in [14] it was 1000 M⁻¹ s⁻¹; in [15], 150000 M⁻¹ s⁻¹; in [16] it was 1.33e+06 M⁻¹ s⁻¹. In addition, the kcat/Km worked out at 850000 M⁻¹ s⁻¹ in series [17], 70000 M⁻¹ s⁻¹ in [18] and 90000 M⁻¹ s⁻¹ in series [19].
